Consider 25 sequences from the supplement of paper PMC9233669.

This sample holds only a part of the variants without activity.

Data set [1] concerns biotinyl-Phe-oxazolone. Nature of the data set: self-aminoacylation, catalytic enhancement (BFO) (fold over background); higher = more active; k-Seq, kA / k0A0; sequences stand for … in GGGAAUGGAUCCACAUCUACGAAUUC…UUCACUGCAGACUUGACGAAGCUG
In short, it runs like this: (§1)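 Mutagenized RNA pools with a 21-nt variable region (0.43 μM) were reacted with each biotinyl-aminoacyl-oxazolone at 2–1250 μM for 90 minutes at room temperature, in 50 μL HEPES/NaCl/KCl/MgCl2/CaCl2 buffer containing 5% acetonitrile at pH 6.9–7.0. RNA captured on streptavidin was quantified by triplicate qPCR and by Illumina sequencing. The fraction reacted for each sequence was fit to a pseudo-first-order model with bootstrapping, and catalytic enhancement is the median kA divided by the uncatalyzed rate, taken as the low-activity peak of a bimodal Gaussian fit.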

The subject of data set [2] is biotinyl-Ile-oxazolone. The experiment in a line: self-aminoacylation, catalytic enhancement (BIO) (fold over background); higher = more active; k-Seq, kA / k0A0; sequences stand for … in GGGAAUGGAUCCACAUCUACGAAUUC…UUCACUGCAGACUUGACGAAGCUG
A digest of the protocol:
as §1

Data set [3] has as its system biotinyl-Met-oxazolone. Nature of the data set: self-aminoacylation, catalytic enhancement (BMO) (fold over background); higher = more active; k-Seq, kA / k0A0; sequences stand for … in GGGAAUGGAUCCACAUCUACGAAUUC…UUCACUGCAGACUUGACGAAGCUG
A digest of the protocol:
as §1

In data set [4] the test system is biotinyl-Val-oxazolone. The experiment in a line: self-aminoacylation, catalytic enhancement (BVO) (fold over background); higher = more active; k-Seq, kA / k0A0; sequences stand for … in GGGAAUGGAUCCACAUCUACGAAUUC…UUCACUGCAGACUUGACGAAGCUG
In short, it runs like this: as §1

Data set [5] concerns biotinyl-Leu-oxazolone. Nature of the data set: self-aminoacylation, catalytic enhancement (BLO) (fold over background); higher = more active; k-Seq, kA / k0A0; sequences stand for … in GGGAAUGGAUCCACAUCUACGAAUUC…UUCACUGCAGACUUGACGAAGCUG
In short, it runs like this:
as §1

Data set [6] deals with biotinyl-Trp-oxazolone. Nature of the data set: self-aminoacylation, catalytic enhancement (BWO) (fold over background); higher = more active; k-Seq, kA / k0A0; sequences stand for … in GGGAAUGGAUCCACAUCUACGAAUUC…UUCACUGCAGACUUGACGAAGCUG
A digest of the protocol: as §1

For the sequence “AAGUUUGCUAAUAUUCGCAGG [Fam3.1 aminoacylation ribozyme variant]”, the self-aminoacylation stood at 1.32 in data set [1]; 1.35 in data set [2]; 1.68 in data set [3]; 1.31 in data set [4]; 1.4 in data set [5]; 2.04 in data set [6].

Consider “ACCCACUUCAAGCAAUCGGUC [Fam1B.1 aminoacylation ribozyme variant]”, for which the self-aminoacylation in data set [1] was 23.3; in data set [2], 1.11; in data set [3], 1.15; in data set [4], 1.29; in data set [5], 1.37; in data set [6], 15.2.

For the sequence “AAGUUUGCUUCUAGUCGCAAG [Fam3.1 aminoacylation ribozyme variant]”, the self-aminoacylation in data set [1] was 1.54; in data set [2], 1.39; in data set [3], 0.998; in data set [4], 1.23; in data set [5], 1.2; in data set [6], 1.11.

In the case of “AAGUUUGCUAAGAGUUGCAAG [Fam3.1 aminoacylation ribozyme variant]”, the self-aminoacylation in data set [1] was determined as 0.74; in data set [2], 0.797; in data set [3] it was 0.665; in data set [4] it was 0.757; in data set [5], 0.86; in data set [6], 0.97.

For the sequence “AUCCUCCUAGGUCAUCGGGUG [Fam2.2 aminoacylation ribozyme variant]”, the self-aminoacylation in data set [1] stood at 68.5; in data set [2], 6.79; in data set [3], 11.8; in data set [4], 7.4; in data set [5] it was 12.9; in data set [6], 9.65.

As to “AUUACUCUGUUCAUCGAGUGA [Fam2.1 aminoacylation ribozyme variant]”, the self-aminoacylation in data set [1] was determined as 3.86; in data set [2], 1.9; in data set [3], 2.88; in data set [4], 1.94; in data set [5], 3.42; in data set [6], 3.94.

Regarding “AUUCACCUAUGUCAUCGGAUG [Fam2.2 aminoacylation ribozyme variant]”, the self-aminoacylation in data set [1] is 0.61; in data set [2], 0.826; in data set [3] it was 0.581; in data set [4], 0.758; in data set [5], 0.606; in data set [6] it was 0.502.

On to “AAGUUUUCGAAUAGUCGCAAG [Fam3.1 aminoacylation ribozyme variant]”, for which the self-aminoacylation amounted to 3.28 in data set [1]; 2.14 in data set [2]; 1.82 in data set [3]; 1.81 in data set [4]; 1.86 in data set [5]; 2.24 in data set [6].

Turning to “AAGUUUGCAAAUACUCGCAAG [Fam3.1 aminoacylation ribozyme variant]”, the self-aminoacylation amounted to 2.14 in data set [1]; 0.898 in data set [2]; 0.701 in data set [3]; 0.798 in data set [4]; 0.897 in data set [5]; 0.774 in data set [6].

Turning to “AUUACCCUGGUCGUCAAGUGA [Fam2.1 aminoacylation ribozyme variant]”, the self-aminoacylation in data set [1] was 0.371; in data set [2], 0.713; in data set [3], 0.773; in data set [4] it was 0.836; in data set [5] it was 0.821; in data set [6], 0.394.

For the sequence “AUCACACUGGUCAUCGAGUGA [Fam2.1 aminoacylation ribozyme variant]”, the self-aminoacylation in data set [1] is 42.5; in data set [2], 4.41; in data set [3], 6.51; in data set [4] it was 4.06; in data set [5], 6.47; in data set [6], 8.95.

As for “AGGUUUGCUAUUAGUCGCAAG [Fam3.1 aminoacylation ribozyme variant]”, the self-aminoacylation in data set [1] stood at 3.21; in data set [2] it was 1.28; in data set [3] it was 1.17; in data set [4], 1.17; in data set [5], 1.49; in data set [6], 1.08.

As to “AAGUUUGUUAAUAGUCUCAAG [Fam3.1 aminoacylation ribozyme variant]”, the self-aminoacylation in data set [1] was found to be 1.62; in data set [2], 1.22; in data set [3], 1.23; in data set [4], 1.15; in data set [5] it was 1.02; in data set [6] it was 1.23.

For “AUUCACCUCGGUCAUCGGGAG [Fam2.2 aminoacylation ribozyme variant]”, the self-aminoacylation in data set [1] was found to be 0.478; in data set [2], 1.02; in data set [3], 1.39; in data set [4], 1.22; in data set [5] it was 1.63; in data set [6] it was 1.17.

“CUUCACCUAGGUCACCGGGUG [Fam2.2 aminoacylation ribozyme variant]”: the self-aminoacylation in data set [1] worked out at 21.9; in data set [2] it was 2.92; in data set [3] it was 3.54; in data set [4] it was 3.81; in data set [5], 5.4; in data set [6] it was 5.51.

For “CCACACAUCAAGCAAUCGUUC [Fam1B.1 aminoacylation ribozyme variant]”, the self-aminoacylation worked out at 0.673 in data set [1]; 0.807 in data set [2]; 0.617 in data set [3]; 0.783 in data set [4]; 0.722 in data set [5]; 0.543 in data set [6].

As to “CCCAACUUCAAGCAAUCGGUC [Fam1B.1 aminoacylation ribozyme variant]”, the self-aminoacylation in data set [1] turned out to be 78.4; in data set [2] it was 1.56; in data set [3] it was 1.49; in data set [4] it was 1.74; in data set [5] it was 2.34; in data set [6] it was 40.9.

On to “CUUUCCCUGGUCAUCGAGUGA [Fam2.1 aminoacylation ribozyme variant]”, for which the self-aminoacylation in data set [1] stood at 7.03; in data set [2], 4.62; in data set [3], 8.78; in data set [4] it was 5.04; in data set [5], 8.95; in data set [6] it was 10.6.

“CUACUUCAAACAAGCGGCCUG [Fam1A.1 aminoacylation ribozyme variant]”: the self-aminoacylation in data set [1] came out at 0.592; in data set [2], 2.41; in data set [3], 1.32; in data set [4], 1.83; in data set [5], 2.08; in data set [6], 1.68.

As to “AUUACGCUGGUCAUCGAUUGA [Fam2.1 aminoacylation ribozyme variant]”, the self-aminoacylation in data set [1] is 0.858; in data set [2] it was 1.18; in data set [3] it was 1.29; in data set [4] it was 1.18; in data set [5], 1.24; in data set [6] it was 1.41.

Turning to “AUUCACCUCGGUCAUCGGUUG [Fam2.2 aminoacylation ribozyme variant]”, the self-aminoacylation in data set [1] was determined as 5.88; in data set [2], 0.923; in data set [3], 1.07; in data set [4] it was 1.07; in data set [5], 1.25; in data set [6], 0.911.

Regarding “CUGCUUCAAACAAUAGGUCUG [Fam1A.1 aminoacylation ribozyme variant]”, the self-aminoacylation is 0.781 in data set [1]; 0.621 in data set [2]; 0.551 in data set [3]; 0.669 in data set [4]; 0.547 in data set [5]; 0.575 in data set [6].

On to “AUACACCAAGGUCAUCGGGUG [Fam2.2 aminoacylation ribozyme variant]”, for which the self-aminoacylation in data set [1] came to 42.2; in data set [2], 4.48; in data set [3], 4.18; in data set [4], 3.5; in data set [5], 6.13; in data set [6], 6.72.

With “CUAGUUCAAACAAUCGGUCUC [Fam1A.1 aminoacylation ribozyme variant]”, the self-aminoacylation in data set [1] worked out at 9.67; in data set [2], 0.896; in data set [3] it was 0.795; in data set [4], 0.863; in data set [5] it was 1.25; in data set [6], 5.9.

As to “CCACACUUAAAGCAAACGGUC [Fam1B.1 aminoacylation ribozyme variant]”, the self-aminoacylation in data set [1] was determined as 0.924; in data set [2], 0.685; in data set [3], 0.502; in data set [4], 0.765; in data set [5], 0.616; in data set [6], 0.578.
